Substrate in data set [1]: CCO
Description: purified protein. The conditions noted are these: quinone analogue Q1 or Q2 100 uM, pH 6.0 phosphate, 30 °C, Triton X-100.

Substrate in data set [2]: CC=O
In words: oxygen consumption (Clark electrode), oxidase activity of purified ADHa coupled to ADH-deficient Ga. diazotrophicus membranes. Format: biochemical, Gluconacetobacter diazotrophicus. The conditions noted are these: quinone analogue Q1 or Q2 100 uM, pH 6.0 phosphate, 30 °C, Triton X-100, text b13 calls the acetaldehyde constants of both assays the same, although the table prints 3.7 × 10^−4 for the dehydrogenase. An excerpt: oxygen consumption (Clark electrode), oxidase activity of purified ADHa coupled to ADH-deficient Ga. diazotrophicus membranes on ADHa

These results are taken from paper PMC4307304, “The Oxidative Fermentation of Ethanol in Gluconacetobacter diazotrophicus Is a Two-Step Pathway Catalyzed by a Single Enzyme: Alcohol-Aldehyde Dehydrogenase (ADHa)” (International Journal of Molecular Sciences, 2015).

B1: ADHa (Gluconacetobacter diazotrophicus PA1 5) (protein)
chain: ESEFGATGEAIIHADDHPGDWLTYGRTYSEQRYSPLDQINRSNVGNLKLAWYYDLDTNRGQEGTPLIVDGVMYATTNWSKMKALDAATGKLLWAYDPRVPGNIADKGCCDTVNRGAAYWNGKVYFGTFDGRLIALDAKTGKLVWSVNTIPADAALGHQRSYTVDGAPRIAKGRVIIGNGGSEFGARGFVSAFDAETGKLDWRFYTVPNAQNKPDNAPSDAVLMSKAYPTWSPTGAWTTQGGGGTVWDSIVYDPVTDLVYLGVGNGSPWNYKFRSDGKGDNLFLGSIVALKPETGEYVWHFQETPMDQWDYTSVQQIMTLDLPINGQTRHVIVHAPKNGFFYIIDAKTGEFLSGKNYVYVNWASGLDPKTGRPIYNPDALYTLNGKEWYGIPGDLGGHNFAAMAFSPRTGLVYIPAQQVPFLYTSQVGGFKPHPDSWNLGLDMNKVGVTDSPEAKQAFIKDLKGWIVAWDPVKQQEAFRVDHKGPWNGGIVATGGDLLFQGLANGEFHAYDATNGADLFHFAAQSGIIAPPVTYMANGKQYVAVEVGWGGIYPFFLGGLARTSGWTVNHSRVIAFSLDGAAKLPPQNDKGFLPVKPPAQFDGKRTDNGYFEFQTFCAACHGDNAEAGGVLPDLRWSGAIRHQDAFYNVVGRGALTAYGMDRFDASMKPEQIEDIRQFLIKRSNDTYQREVDARKNVDGIPAQ
notes: native, purified from membranes with Triton X-100; heterodimer ~72 kDa (S-I) and ~44 kDa (S-II); with Alcohol dehydrogenase (quinone), cytochrome c subunit
The Km is the concentration of substrate that gives half-maximal velocity. In general, kcat/Km refers to the turnover number divided by the Michaelis constant. For B1, in data set [1], the Km was 76 µM and the kcat/Km stood at 1.8e+09 M⁻¹ s⁻¹. Besides, in data set [2], the Km was found to be 1100 µM and the kcat/Km came to 1e+08 M⁻¹ s⁻¹.
